In the supplement of paper PMC9732359:
± gives the uncertainty stated by the source.

Test: protein stability index of a GFP-peptide fusion (yeast GPS) (PSI 1-4); higher = more stable; sorted into four equal gates, so the index is relative within each strain
In short: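 Tiled 17-residue yeast protein peptides were fused downstream of GFP in a plasmid that also expresses Cherry, and the pooled library was carried in yeast. Mid-log cultures in leucine-free medium were sorted into four equal gates by GFP/Cherry fluorescence ratio, and plasmids from each gate were PCR-amplified and Illumina-sequenced, with reads assigned to strains by barcodes. The protein stability index for each peptide was each gate's read frequency times its gate number, summed.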

Row | Sequence | protein stability index (doa10∆) | protein stability index (pdr5∆) | protein stability index (san1∆) | protein stability index (ubr1∆)
1 | REYLEEYKSLFVVGVDN [RPP0] | 3.11 ± 0.075 | 2.55 ± 0.087 | 2.91 ± 0.1 | 3.24 ± 0.071
2 | SQKQTLIKKPLTVFYAI [SSN3] | 2.1 ± 0.089 | 2.13 ± 0.061 | 2.12 ± 0.085 | 2.01 ± 0.057
3 | QNSKFLKVNVTLDNPLL [YJL039C/NUP192] | 2.72 ± 0.088 | 2.57 ± 0.083 | 2.91 ± 0.058 | 2.36 ± 0.044
4 | TLDVEAFKSVVSTETFE [RPL27A] | 2.4 ± 0.069 | 2.74 ± 0.051 | 2.59 ± 0.051 | 2.46 ± 0.053
5 | VVFAVEKLITSKLLVPQ [PRE10] | 2.03 ± 0.14 | 2.81 ± 0.18 | 2.33 ± 0.13 | 2.66 ± 0.05
6 | KLYQTEPSGIYSSWSAQ [PRE6] | 2.63 ± 0.084 | 2.15 ± 0.11 | 2.87 ± 0.11 | 1.46 ± 0.054
7 | DYYQSIYAKYGAKGSTL [FAS2] | 2.85 ± 0.094 | 2.79 ± 0.07 | 2.71 ± 0.067 | 3.13 ± 0.076
8 | YVEAQHKLVFVVRIKGI [RPL7A] | 1.09 ± 0.058 | 1.19 ± 0.054 | 1.25 ± 0.094 | 1.21 ± 0.053
9 | NISNNLQKALTVKTNDE [RPN8] | 3.02 ± 0.16 | 3 ± 0.11 | 2.82 ± 0.14 | 2.88 ± 0.067
10 | SSSMDMQANTNALRRNL [SSN3] | 2.63 ± 0.055 | 2.33 ± 0.05 | 3.13 ± 0.046 | 2.28 ± 0.043
11 | HILPEVPPVENFPVRQW [TAF14] | 2.71 ± 0.12 | 3.05 ± 0.088 | 2.95 ± 0.073 | 3.05 ± 0.055
12 | SNDLCSQIFDQLKDMQT [SRB8] | 2.72 ± 0.047 | 2.67 ± 0.042 | 2.47 ± 0.049 | 2.71 ± 0.034
13 | KDYSQILKEEFPKIDSL [RPN5] | – | 2.35 ± 0.24 | – | –
14 | LEDLKNTKEIAVDLEHH [RRP6] | 2.66 ± 0.061 | 2.54 ± 0.047 | 2.48 ± 0.056 | 2.7 ± 0.038
15 | RNMIIVPEMIGSVVGIY [RPS15] | 1.31 ± 0.094 | 1.42 ± 0.057 | 1.53 ± 0.13 | 1.45 ± 0.057
16 | PPSKHSTLTLSDSEDSD [ESC2] | 3.01 ± 0.15 | 2.82 ± 0.14 | 2.59 ± 0.071 | 2.64 ± 0.19
17 | SLPFLLRHMPLASIPDI [SSN2] | 1.94 ± 0.072 | 1.69 ± 0.055 | 1.5 ± 0.072 | 1.44 ± 0.045
18 | DADGDIDMGEDKENVPV [DPB4] | 3.12 ± 0.17 | 3.29 ± 0.13 | 3.01 ± 0.15 | 3.66 ± 0.13
19 | NIDSLKFNELVKLMKNI [BRR2] | 1.37 ± 0.04 | 1.63 ± 0.067 | 1.5 ± 0.11 | 1.8 ± 0.052
20 | MAQENSMERKVQGAAPW [MCD1] | 3.35 ± 0.26 | 2.92 ± 0.11 | – | –
21 | LLREFKKLDDKPSLVDV [RPN6] | – | 3.44 ± 0.25 | 3.27 ± 0.26 | –
22 | LKYLDDLKAQFQELDSK [RPN9] | 3.13 ± 0.097 | 3.23 ± 0.069 | 3.12 ± 0.075 | 3.2 ± 0.064
23 | ETAERNIIQAKRDAKAA [RPL7A] | – | 2.06 ± 0.21 | 1.93 ± 0.16 | –
24 | VNGSPITLVEPEILRFK [RPS16A] | – | 2.79 ± 0.15 | – | 3.36 ± 0.17
25 | IDESMPDTAIDSQMDEA [GRR1] | 3.01 ± 0.093 | 3.08 ± 0.08 | 2.85 ± 0.078 | 3.06 ± 0.059
26 | SLFHTAVSVANGFMHAG [RPN2] | 1.18 ± 0.087 | 1.51 ± 0.077 | 1.29 ± 0.25 | 1.57 ± 0.13
27 | SILEEKIAVLNNDKREI [SMC1] | 3.21 ± 0.071 | 3.38 ± 0.057 | 3.25 ± 0.051 | 3.33 ± 0.061
28 | SKKRQAEKLVPLPICHA [YML031W/NDC1] | 2.33 ± 0.12 | 2.5 ± 0.049 | 2.39 ± 0.087 | 2.39 ± 0.093

Row | Sequence | protein stability index (doa10∆) | protein stability index (pdr5∆) | protein stability index (san1∆) | protein stability index (ubr1∆)
29 | TEAAFTKLDQVWGSETV [RPL4A] | 1.84 ± 0.18 | 1.87 ± 0.11 | 3.07 ± 0.067 | 2.15 ± 0.14
30 | TKISTLAVKVHGGSRYA [QCR2] | 1.34 ± 0.12 | 1.64 ± 0.21 | 1.18 ± 0.29 | 1.41 ± 0.17
31 | EAASITRKSLNNAVRFS [ECM29] | 2.59 ± 0.081 | 2.88 ± 0.084 | 2.86 ± 0.055 | 2.97 ± 0.048
32 | KSKEDMKQLKFFKPLDY [SNU114] | 3.32 ± 0.14 | 3.08 ± 0.098 | 3.05 ± 0.16 | 3.29 ± 0.087
33 | FGNSLICEDPETAKKIT [SMC2] | 2.82 ± 0.1 | 2.74 ± 0.084 | 2.62 ± 0.24 | 2.91 ± 0.075
34 | ASITPYKLVNKNKENNT [RPN4] | 1.08 ± 0.078 | 2.28 ± 0.092 | 2.48 ± 0.12 | 2.11 ± 0.07
35 | RIISGDQITKMKDRLVE [RPN9] | – | – | 3.34 ± 0.26 | 2.69 ± 0.19
36 | FILELEHKTPELISFKE [YIL149C/MLP2] | 2.86 ± 0.081 | 3.05 ± 0.086 | 2.96 ± 0.1 | 3.29 ± 0.086
37 | TTFTHCEIHPSMILGVA [RPB2] | 1.75 ± 0.11 | 2.39 ± 0.075 | 1.3 ± 0.14 | 2.57 ± 0.098
38 | CVVSTDSTNLSDDAAQF [ECM29] | 2.19 ± 0.086 | 2.6 ± 0.075 | 1.69 ± 0.08 | 3.04 ± 0.078
39 | SPFGGSSHAKGIVLEKL [RPS23A] | 3.19 ± 0.096 | 3.14 ± 0.074 | 3.12 ± 0.067 | 3.17 ± 0.063
40 | LQSISSLTISLYASDYA [RPN7] | 1.71 ± 0.031 | 1.84 ± 0.03 | 1.83 ± 0.039 | 1.95 ± 0.027
41 | PIFDYIHIDALELAGMD [SIR3] | 1.63 ± 0.053 | 1.79 ± 0.054 | 2.05 ± 0.064 | 2.17 ± 0.092
42 | FESLPLKSAENSGKQQY [SWP82] | 3.17 ± 0.063 | 3.3 ± 0.057 | 3.01 ± 0.055 | 3.2 ± 0.056
43 | QLSNGIVVATEHNPSAH [COR1] | 2.88 ± 0.075 | 3.08 ± 0.1 | 3.2 ± 0.059 | 2.52 ± 0.074
44 | AKNETNSESDSKSDSDS [ITC1] | 3.01 ± 0.05 | 3.03 ± 0.049 | 3.09 ± 0.047 | 2.88 ± 0.042
45 | SKLLVPQKNVKIQVVDR [PRE10] | 3.02 ± 0.074 | 2.84 ± 0.049 | 2.53 ± 0.099 | 2.72 ± 0.052
46 | LFWKVKEEEGSFNNVIG [PRE2] | 3.13 ± 0.12 | 3.39 ± 0.11 | 3.21 ± 0.071 | 3.2 ± 0.11
47 | NIIESIANFSRAGKYEL [YJR042W/NUP85] | 2.86 ± 0.087 | 2.96 ± 0.086 | 2.87 ± 0.051 | 2.44 ± 0.042
48 | ISSLFTITTILILGLNT [YML103C/NUP188] | 1.51 ± 0.078 | 1.75 ± 0.094 | 1.46 ± 0.2 | 1.75 ± 0.065
49 | LRSTENGIVDQVLVTTN [RPB2] | 2.39 ± 0.095 | 2.03 ± 0.11 | 2.46 ± 0.099 | 1.82 ± 0.055
50 | TFTFTAHMGVLLVLLQD [SWP82] | 1.71 ± 0.044 | 1.32 ± 0.044 | 1.41 ± 0.087 | 1.42 ± 0.035
51 | GNPLSIGTLEEIIDDDH [RPT2] | 3.28 ± 0.1 | 3.43 ± 0.14 | 3.14 ± 0.076 | 3.24 ± 0.17
52 | NDITNLQLSKTPLSIKI [SRB8] | 2.58 ± 0.062 | 2.52 ± 0.069 | 2.81 ± 0.056 | 2.77 ± 0.051
53 | MIAKEVKTSPDAKKCIA [FAS1] | 1.71 ± 0.15 | 2.95 ± 0.28 | 2.8 ± 0.28 | 2.05 ± 0.12
54 | QLGEWAGLGKIDREGNA [RPS12] | 3.67 ± 0.28 | – | 3.4 ± 0.26 | 3.35 ± 0.14
55 | ASLVDYVQVRQPIFVAH [RPS5] | 1.99 ± 0.1 | 1.98 ± 0.069 | 2.1 ± 0.14 | 1.67 ± 0.11
